Measured values as given in patent US20100204147A1, “Methods For Delivering Thymosin Beta 4, Analogues, Isoforms and Other Derivatives” (REGENERX BIOPHARMACEUTICALS, INC., priority 2003, published 2010).

What was measured:
fibrinogen = biological target: T1, fibrinogen (Homo sapiens, UniProt P02671); test: Factor XIIIa-mediated incorporation of FITC-labeled thymosin β4 into fibrinogen (spectrophotometric); format: biochemical; details: fibrinogen 9 μM, thymosin β4 30 μM, factor XIIIa, 4 hours, 37° C.
T1 construct: purchased Enzyme Research Laboratories (South Bend, Ind.)
T1 sequence (P02671 20-644 isoform P02671-2 limits assumed): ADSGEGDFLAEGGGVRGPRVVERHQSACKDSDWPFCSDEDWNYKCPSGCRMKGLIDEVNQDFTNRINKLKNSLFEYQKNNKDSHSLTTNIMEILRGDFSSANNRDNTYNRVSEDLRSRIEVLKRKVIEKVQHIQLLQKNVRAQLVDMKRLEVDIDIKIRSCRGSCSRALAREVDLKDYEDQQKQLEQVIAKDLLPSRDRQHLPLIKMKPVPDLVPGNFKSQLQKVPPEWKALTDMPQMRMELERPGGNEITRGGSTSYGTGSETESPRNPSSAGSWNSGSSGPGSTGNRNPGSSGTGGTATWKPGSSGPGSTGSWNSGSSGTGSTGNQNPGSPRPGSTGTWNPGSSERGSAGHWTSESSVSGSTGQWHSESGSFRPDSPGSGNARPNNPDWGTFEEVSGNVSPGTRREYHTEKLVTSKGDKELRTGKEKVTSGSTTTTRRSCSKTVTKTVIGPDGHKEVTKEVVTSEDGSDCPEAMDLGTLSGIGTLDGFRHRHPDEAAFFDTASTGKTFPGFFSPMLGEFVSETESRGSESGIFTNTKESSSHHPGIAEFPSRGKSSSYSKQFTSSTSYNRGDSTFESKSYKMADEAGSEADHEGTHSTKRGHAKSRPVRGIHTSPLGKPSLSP
T1 sequence (P02675 31-491 partner): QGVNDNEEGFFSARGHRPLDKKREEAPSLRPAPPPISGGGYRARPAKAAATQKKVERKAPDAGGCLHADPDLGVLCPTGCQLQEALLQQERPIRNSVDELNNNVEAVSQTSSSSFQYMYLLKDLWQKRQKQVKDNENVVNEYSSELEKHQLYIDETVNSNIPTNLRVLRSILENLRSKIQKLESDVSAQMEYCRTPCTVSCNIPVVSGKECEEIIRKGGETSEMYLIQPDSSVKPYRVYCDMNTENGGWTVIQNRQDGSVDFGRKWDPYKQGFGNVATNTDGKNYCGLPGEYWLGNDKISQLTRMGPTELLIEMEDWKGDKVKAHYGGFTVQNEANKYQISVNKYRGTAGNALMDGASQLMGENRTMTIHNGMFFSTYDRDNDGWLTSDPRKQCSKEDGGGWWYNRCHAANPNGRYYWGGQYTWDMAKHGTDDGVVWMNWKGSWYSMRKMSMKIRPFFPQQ
T1 sequence (P02679 27-437 isoform P02679-2 partner limits assumed): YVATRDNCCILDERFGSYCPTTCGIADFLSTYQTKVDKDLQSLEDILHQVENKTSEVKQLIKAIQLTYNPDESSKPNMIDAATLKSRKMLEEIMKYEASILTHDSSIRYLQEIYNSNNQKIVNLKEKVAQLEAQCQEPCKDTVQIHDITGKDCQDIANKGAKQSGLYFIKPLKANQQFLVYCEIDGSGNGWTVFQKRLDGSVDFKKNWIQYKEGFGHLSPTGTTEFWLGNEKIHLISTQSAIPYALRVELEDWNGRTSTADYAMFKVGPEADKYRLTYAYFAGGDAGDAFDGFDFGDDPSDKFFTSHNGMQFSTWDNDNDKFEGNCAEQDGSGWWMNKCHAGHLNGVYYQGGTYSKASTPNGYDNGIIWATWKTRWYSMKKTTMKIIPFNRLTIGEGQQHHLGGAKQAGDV
Procedure: (§1) Reactions of incorporation of FITC-labeled and unlabeled thymosin β4 into fibrinogen and fibrin were performed in Eppendorf tubes containing a mixture of fibrinogen at 3 mg/mL (9 μM) and thymosin β4 or FITC-labeled thymosin β4 at […] (30 μM) in 100 μL TBS with 2.5 mM CaCl2. The reactions were initiated by addition of FXIIIa(Ca) or FXIIIa(Thr) to final concentration of 30 μg/mL. The final concentration of thrombin in the FXIIIa(Thr)-containing mixtures was made at 2.5 NIH u/mL, sufficient to rapidly form fibrin clot which was observed visually. The reactions with FITC-labeled thymosin β4 lasted for 4 hours at 37° C. in the dark and were stopped by heat inactiviation of the enzymes in boiling water for 5 min during fibrinogen and fibrin denatured and precipitated. The pellets were centrifuged and washed 3 times in TBS and then solubilized. The amounts of fibrin(ogen) and FITC-labeled thymosin β4 in the solubilized pellet were determined spectrophotomertrically using absorption molar coefficients E280,1%=15.0 and ε495=72,000 M^−1cm^−1, respectively. To prepare samples with unlabeled thymosin β4 for analysis by SDS-PAGE and Western blot the reaction mixtures at the indicated time were heat-inactivated as above and solubilized by addition of sample buffer (Invitrogen) containing SDS and reducing agent.

fibrin = biological target: T2, fibrin (Homo sapiens, UniProt P02671); test: Factor XIIIa-mediated incorporation of FITC-labeled thymosin β4 into fibrin (spectrophotometric); format: biochemical; details: fibrinogen 9 μM, thymosin β4 30 μM, factor XIIIa with thrombin, 4 hours, 37° C.
T2 construct: purchased Enzyme Research Laboratories (South Bend, Ind.); host or cells: fibrin generated in the well or tube from the purchased fibrinogen with bovine thrombin
T2 sequence (P02671 36-629): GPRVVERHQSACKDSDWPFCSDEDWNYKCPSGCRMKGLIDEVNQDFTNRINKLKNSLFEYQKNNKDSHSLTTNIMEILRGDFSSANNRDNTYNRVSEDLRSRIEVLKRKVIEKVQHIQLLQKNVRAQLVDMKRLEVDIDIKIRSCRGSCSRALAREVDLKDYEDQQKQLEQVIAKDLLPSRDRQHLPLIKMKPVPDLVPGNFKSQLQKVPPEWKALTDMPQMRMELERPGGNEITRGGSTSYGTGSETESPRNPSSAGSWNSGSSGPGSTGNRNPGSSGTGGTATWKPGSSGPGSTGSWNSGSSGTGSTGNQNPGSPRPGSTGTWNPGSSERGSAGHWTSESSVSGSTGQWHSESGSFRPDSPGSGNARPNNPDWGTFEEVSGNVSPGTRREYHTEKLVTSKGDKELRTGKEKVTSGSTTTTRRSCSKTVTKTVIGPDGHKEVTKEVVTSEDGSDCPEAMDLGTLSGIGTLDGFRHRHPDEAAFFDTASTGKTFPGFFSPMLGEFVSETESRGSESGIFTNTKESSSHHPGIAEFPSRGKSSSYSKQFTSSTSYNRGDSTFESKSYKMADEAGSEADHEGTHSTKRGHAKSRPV
T2 sequence (P02675 45-491 partner): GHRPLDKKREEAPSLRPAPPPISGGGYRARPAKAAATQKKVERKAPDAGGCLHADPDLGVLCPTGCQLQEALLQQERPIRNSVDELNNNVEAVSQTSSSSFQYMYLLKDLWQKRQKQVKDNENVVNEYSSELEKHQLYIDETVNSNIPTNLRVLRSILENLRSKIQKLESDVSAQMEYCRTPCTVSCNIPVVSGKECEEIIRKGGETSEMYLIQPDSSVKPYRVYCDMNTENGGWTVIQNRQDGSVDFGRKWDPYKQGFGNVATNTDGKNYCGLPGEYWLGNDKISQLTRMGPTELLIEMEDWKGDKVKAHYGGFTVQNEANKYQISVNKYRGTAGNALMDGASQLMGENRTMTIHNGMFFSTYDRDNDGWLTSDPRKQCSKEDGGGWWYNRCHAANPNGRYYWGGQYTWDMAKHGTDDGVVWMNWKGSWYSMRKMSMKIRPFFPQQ
T2 sequence (P02679 27-437 isoform P02679-2 partner): T1 sequence (P02679 27-437 isoform P02679-2 partner limits assumed)
Procedure: as §1

degree of incorporation into fibrinogen (fibrinogen): about 0.2 moles per mole | degree of incorporation into fibrin (fibrin): ~0.4 moles per mole
Substance: FITC-thymosin β4: Fluorescence labeled thymosin β4 prepared by reaction with fluorescein isothiocyanate; 0.9 mole of FITC per mole of thymosin β4 [reference compound]
